Test results taken from IntAct's records for PubMed 16236155.

B1: ADP-ribosylation factor 3 (Arabidopsis thaliana (Mouse-ear cress)), P40940 (parent)
chain: MGILFTRMFSSVFGNKEARILVLGLDNAGKTTILYRLQMGEVVSTIPTIGFNVETVQYNNIKFQVWDLGGQTSIRPYWRCYFPNTQAVIYVVDSSDTDRIGVAKEEFHAILEEDELKGAVVLIFANKQDLPGALDDAAVTEALELHKIKSRQWAIFKTCAVKGEGLFEGLDWLSNTLKSGSG
partner: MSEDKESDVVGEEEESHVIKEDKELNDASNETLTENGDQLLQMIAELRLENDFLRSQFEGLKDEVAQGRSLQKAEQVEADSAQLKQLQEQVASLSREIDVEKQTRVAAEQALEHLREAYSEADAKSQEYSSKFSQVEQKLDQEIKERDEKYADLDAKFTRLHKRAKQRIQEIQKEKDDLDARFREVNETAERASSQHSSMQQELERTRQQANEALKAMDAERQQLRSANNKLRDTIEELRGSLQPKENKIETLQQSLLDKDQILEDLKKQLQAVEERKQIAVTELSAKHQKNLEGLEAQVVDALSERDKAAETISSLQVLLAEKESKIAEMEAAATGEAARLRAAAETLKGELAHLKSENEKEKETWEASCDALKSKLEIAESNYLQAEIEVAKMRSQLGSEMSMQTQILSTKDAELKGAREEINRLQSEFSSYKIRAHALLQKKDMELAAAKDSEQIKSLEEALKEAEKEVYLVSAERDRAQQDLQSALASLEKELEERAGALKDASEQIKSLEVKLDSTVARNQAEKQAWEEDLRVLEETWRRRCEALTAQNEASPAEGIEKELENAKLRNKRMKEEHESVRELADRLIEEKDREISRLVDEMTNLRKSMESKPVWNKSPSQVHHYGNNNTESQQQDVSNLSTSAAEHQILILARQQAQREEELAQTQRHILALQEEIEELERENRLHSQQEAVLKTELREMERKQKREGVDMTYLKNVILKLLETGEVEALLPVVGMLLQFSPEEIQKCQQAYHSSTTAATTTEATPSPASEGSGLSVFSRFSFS
B2: Protein GRIP (Arabidopsis thaliana (Mouse-ear cress)), Q8S2T0 (parent)
chain: B1 partner
partner: B1 chain

Variants of: B1
Conditions: with grip_arath GRIP

effect of a mutation on the interaction	Variant
causing an interaction	MGILFTRMFSSVFGNKEARILVLGLDNAGKTTILYRLQMGEVVSTIPTIGFNVETVQYNNIKFQVWDLGGLTSIRPYWRCYFPNTQAVIYVVDSSDTDRIGVAKEEFHAILEEDELKGAVVLIFANKQDLPGALDDAAVTEALELHKIKSRQWAIFKTCAVKGEGLFEGLDWLSNTLKSGSG [Q71L]

Variants of: B1
Conditions: with grip_arath GRIP, Q8S2T0

effect of a mutation on the interaction	Variant
disrupting interaction	MGILFTRMFSSVFGNKEARILVLGLDNAGKNTILYRLQMGEVVSTIPTIGFNVETVQYNNIKFQVWDLGGQTSIRPYWRCYFPNTQAVIYVVDSSDTDRIGVAKEEFHAILEEDELKGAVVLIFANKQDLPGALDDAAVTEALELHKIKSRQWAIFKTCAVKGEGLFEGLDWLSNTLKSGSG [T31N]

Variants of: B2
Conditions: with arf3_arath ARF3, P40940

effect of a mutation on the interaction	Variant
decreasing interaction	Y717A
